Key:
purified protein [1] = substrate: Nc1nc2c([nH]c(=O)n2[C@H]2C[C@H](O)[C@@H](COP(=O)(O)OP(=O)(O)O)O2)c(=O)[nH]1; test: purified protein; conditions: pH 9.4, 7.5 mM Mg2+ (optimal conditions), 37°C
purified protein [2] = substrate: Nc1nc2c(ncn2[C@H]2C[C@H](O)[C@@H](CO[P@](=O)(O)OP(=O)(O)O)O2)c(=O)[nH]1; test: purified protein; conditions: pH 9.4, 7.5 mM Mg2+ (optimal conditions), 37°C

B1: DR0975 protein (Deinococcus radiodurans R1 = ATCC 13939 = DSM 20539) (protein)
chain: MGRRDLLVAAGILRDRFGRVLLVGNDWQGHGRVRHTLPGGVVEHGETLPEALYREIYEETGLKLTGIKHMAYTVHIEDERRGERAIAVAFEATWEGLLNPADPDGFIVEARFCTVDEALDKLDSPPMREPLADYLNTGEPGRFYAFKGWDGRGGLRIPTLKPVVKDR
- Km (purified protein [1]): 170 µM
- kcat (purified protein [1]): 0.13 s⁻¹
- Km (purified protein [2]): 110 µM
- kcat (purified protein [2]): 0.18 s⁻¹

From article PMC428907
